Assay [1] deals with mouse AXL extracellular domain (Sino cat. 51026-M08H) (mouse) (UniProt Q00993). The assay can be described thus: ELISA on coated AXL ECD (100 ng/well). A general note: ELISA stands for enzyme-linked immunosorbent assay.
The target in assay [2] is recombinant human AXL extracellular domain, C-terminally His8-tagged (rhAXL-ECD) (human) (UniProt P30530). Kind of assay: ELISA on coated AXL ECD (100 ng/well).
Assay [3] has as its target cyAXL-ECD displayed on yeast. The assay can be described thus: yeast surface display ELISA, non-denatured yeast, goat anti-human F(ab')2-HRP.
Assay [4] addresses huTyro3-ECD displayed on yeast (human) (UniProt Q06418). Described as above.
Assay [5] concerns the target huAXL-ECD displayed on yeast (human) (UniProt P30530). Described as above.
Assay [6] has as its target huMER-ECD displayed on yeast (human) (UniProt Q12866). The description is as above.

This passage reports EC50 and yeast ELISA signal normalized to myc expression level results from patent US20240076389A1.

Chain of huMER-ECD displayed on yeast (human) (Q12866 21-505): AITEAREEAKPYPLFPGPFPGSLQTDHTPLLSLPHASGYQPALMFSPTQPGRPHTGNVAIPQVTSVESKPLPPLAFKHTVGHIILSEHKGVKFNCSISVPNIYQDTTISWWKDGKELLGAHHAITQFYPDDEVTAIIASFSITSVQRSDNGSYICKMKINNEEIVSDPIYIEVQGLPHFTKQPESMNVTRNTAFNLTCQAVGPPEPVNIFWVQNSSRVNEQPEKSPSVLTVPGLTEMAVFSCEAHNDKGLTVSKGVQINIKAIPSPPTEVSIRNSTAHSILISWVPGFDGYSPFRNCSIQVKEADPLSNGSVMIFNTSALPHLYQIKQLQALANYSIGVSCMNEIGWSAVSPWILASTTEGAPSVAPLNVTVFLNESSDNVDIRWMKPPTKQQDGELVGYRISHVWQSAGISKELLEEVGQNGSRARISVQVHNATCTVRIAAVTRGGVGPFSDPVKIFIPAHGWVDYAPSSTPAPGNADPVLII
Chain of huTyro3-ECD displayed on yeast (human) (Q06418 41-429): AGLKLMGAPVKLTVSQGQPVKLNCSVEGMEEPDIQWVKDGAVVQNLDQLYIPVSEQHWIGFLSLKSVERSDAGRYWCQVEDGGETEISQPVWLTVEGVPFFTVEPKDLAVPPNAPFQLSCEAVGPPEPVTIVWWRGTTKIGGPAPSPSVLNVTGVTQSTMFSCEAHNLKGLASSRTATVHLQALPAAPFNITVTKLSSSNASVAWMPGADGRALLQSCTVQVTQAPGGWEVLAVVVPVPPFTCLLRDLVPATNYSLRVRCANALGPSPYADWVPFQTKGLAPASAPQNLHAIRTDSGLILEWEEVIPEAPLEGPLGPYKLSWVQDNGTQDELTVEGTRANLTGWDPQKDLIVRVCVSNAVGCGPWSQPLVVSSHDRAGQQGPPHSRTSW
Chain of recombinant human AXL extracellular domain, C-terminally His8-tagged (rhAXL-ECD) (human) (P30530 other isoform, or with tags, fused parts or gaps limits assumed): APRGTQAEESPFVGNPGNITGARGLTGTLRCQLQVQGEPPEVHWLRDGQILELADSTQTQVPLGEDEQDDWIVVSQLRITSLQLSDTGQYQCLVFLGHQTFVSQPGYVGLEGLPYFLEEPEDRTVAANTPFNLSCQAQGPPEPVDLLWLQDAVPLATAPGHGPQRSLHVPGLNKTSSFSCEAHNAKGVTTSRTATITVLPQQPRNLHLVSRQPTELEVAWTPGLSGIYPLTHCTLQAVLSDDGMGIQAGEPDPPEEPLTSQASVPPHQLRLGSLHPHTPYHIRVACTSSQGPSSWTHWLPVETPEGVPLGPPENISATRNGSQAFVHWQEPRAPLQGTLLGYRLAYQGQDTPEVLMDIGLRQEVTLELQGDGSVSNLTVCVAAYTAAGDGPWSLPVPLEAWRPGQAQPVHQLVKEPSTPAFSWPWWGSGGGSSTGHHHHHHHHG
Chain of mouse AXL extracellular domain (Sino cat. 51026-M08H) (mouse) (Q00993 19-445, stated change not applied): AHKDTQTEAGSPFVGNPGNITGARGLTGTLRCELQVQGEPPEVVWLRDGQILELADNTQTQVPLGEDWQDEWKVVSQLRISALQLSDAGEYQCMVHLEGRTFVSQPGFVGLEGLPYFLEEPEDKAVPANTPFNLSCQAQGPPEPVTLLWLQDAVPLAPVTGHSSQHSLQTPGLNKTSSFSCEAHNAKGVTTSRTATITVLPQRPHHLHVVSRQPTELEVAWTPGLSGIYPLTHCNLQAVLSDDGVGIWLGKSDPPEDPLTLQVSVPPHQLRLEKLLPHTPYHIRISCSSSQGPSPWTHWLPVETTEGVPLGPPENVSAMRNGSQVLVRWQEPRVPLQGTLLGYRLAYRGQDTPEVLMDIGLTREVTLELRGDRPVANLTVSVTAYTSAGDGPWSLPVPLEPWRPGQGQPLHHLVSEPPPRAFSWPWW
Chain of huAXL-ECD displayed on yeast (human) (P30530 26-449, form in doubt): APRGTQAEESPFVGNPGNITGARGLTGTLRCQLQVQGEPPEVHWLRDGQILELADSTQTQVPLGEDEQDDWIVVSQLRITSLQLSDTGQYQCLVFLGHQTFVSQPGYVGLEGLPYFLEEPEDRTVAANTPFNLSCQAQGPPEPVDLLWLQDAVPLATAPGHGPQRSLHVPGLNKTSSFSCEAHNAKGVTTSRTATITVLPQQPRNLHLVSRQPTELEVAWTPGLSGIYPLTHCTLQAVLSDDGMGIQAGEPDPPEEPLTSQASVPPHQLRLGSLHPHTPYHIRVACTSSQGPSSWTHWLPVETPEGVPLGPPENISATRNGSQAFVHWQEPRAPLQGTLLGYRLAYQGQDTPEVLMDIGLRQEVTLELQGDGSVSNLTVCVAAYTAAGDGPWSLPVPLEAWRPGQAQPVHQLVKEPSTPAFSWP

A word on the EC50: it is the concentration giving half of the maximal effect. Consider “MAB8541 (R&D Systems), commercial anti-mouse AXL mAb, clone 175128, rat IgG2A (antibody)”, for which the EC50 in assay [1] is 1 nM; in assay [2], 61 nM.

Take hFC-anti-RSV (antibody): the yeast ELISA signal normalized to myc expression level in assay [3] was -0.004; in assay [4], 0.059; in assay [5], 0.087; in assay [6], -0.001.
